Results: the supplement of paper PMC10567573

B1: CAMK2D (parent)
chain: IVRLHDSISEEGFHYLVFDLVTGG

Variants of: B1
Assay: protein stability index of a GFP-peptide fusion (GPS, HEK-293T) (PSI 1-6); higher = more stable
Settings: c terminus: a fixed tail appended
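Further: lentivirally expressed fusions sorted by FACS into six bins by GFP to DsRed ratio, PSI derived from sequencing read proportions per bin multiplied by bin number.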

Protein stability index of substitutions, site by site:
G23: W 2.89 | P 3.1 | E 3.03 | T 3.2 | K 2.19 | C 4.08 | R 2.53 | N 2.49 | Q 2.59 | I 2.57 | A 3.32 | L 2.92 | V 2.43 | Y 4.01 | H 2.88
G24: C 2.4 | D 2.26
H14: P 2.79 | Y 2.71 | E 1.83 | K 2.2 | C 2.29 | D 1.85 | M 2.25 | A 2.32
V21: M 1.93 | H 2 | K 1.57 | A 1.11 | W 4.26 | P 2.41 | F 3.33 | Y 3.1 | L 2.71 | N 4.11 | T 2.88 | G 3.19 | Q 2.38 | D 3.2
Y15: R 1.21 | H 1.2 | F 2.63 | N 2.46 | A 2.98 | K 2.76 | W 2.7 | E 1.7 | S 1.06 | P 1.75 | D 1.89 | I 2.54 | Q 1.58
F18: H 1.63 | D 2.67 | G 2 | E 2.33 | V 4.52 | L 2.51 | K 2.17 | P 2.13 | Y 1.43 | T 2.1 | Q 1.33 | N 2.84 | R 1.79 | C 1.32 | S 2 | A 2.33
F13: D 1.91 | P 1.08 | N 2.2 | T 3.34 | Q 1.37 | E 2.6 | A 1.76 | K 1.43 | Y 3.07 | H 1.62 | S 3.27 | M 2.71 | L 2.02 | W 2.18
D19: Y 3.34 | A 1.87 | W 1.91 | I 2.4 | Q 2.4 | T 1.62 | K 2.88 | S 4.24 | V 2.75 | G 2.15 | M 3.68 | P 3.21 | L 2.47
L20: P 1.86 | Q 2.52 | E 2.05 | N 2.25 | S 1.45 | Y 2.67 | R 2.04 | C 3.9 | G 1.93 | K 2.41 | A 2.13 | H 1.35 | D 1.67 | V 3.87 | I 3.09 | T 2.27 | M 3.24
T22: E 2.96 | H 2.24 | N 4.16 | Y 3.62 | C 3.58 | K 3.31 | M 2.02 | S 2.67 | I 2.22
G12: V 3.05 | N 2.04 | W 3.89 | P 2.31 | S 3.25 | E 2.48 | I 2.16 | A 2.25 | T 3.32 | Y 3.96
V17: H 2.93 | N 1.85 | A 2.78 | T 1.75 | R 2.13 | E 1.69 | I 2.58 | S 3.19 | G 3.58 | W 2.39 | K 2.56 | L 1 | P 2.04 | F 2.39 | D 1.46 | Y 3.27
E11: T 2.08 | Y 3.26 | R 3.9 | P 2.13 | Q 2.06
L16: Y 2.98 | E 1.57 | R 2.51 | Q 2.04 | D 1.63 | N 1.5 | F 2.76 | S 1.55 | T 1.21 | H 1.39 | A 3.09 | I 2.66 | G 2.17 | P 1.74 | C 2.49
